Measurements from publication PMC5658042 (Methods (San Diego, Calif.), 2017).

Target: Drosophila melanogaster Dicer-2 (dmDcr-2), OSF tag removed (Drosophila melanogaster, UniProt A1ZAW0 1-1722)
Experiment: cross-linking

Chain of Drosophila melanogaster Dicer-2 (dmDcr-2), OSF tag removed (A1ZAW0 whole entry): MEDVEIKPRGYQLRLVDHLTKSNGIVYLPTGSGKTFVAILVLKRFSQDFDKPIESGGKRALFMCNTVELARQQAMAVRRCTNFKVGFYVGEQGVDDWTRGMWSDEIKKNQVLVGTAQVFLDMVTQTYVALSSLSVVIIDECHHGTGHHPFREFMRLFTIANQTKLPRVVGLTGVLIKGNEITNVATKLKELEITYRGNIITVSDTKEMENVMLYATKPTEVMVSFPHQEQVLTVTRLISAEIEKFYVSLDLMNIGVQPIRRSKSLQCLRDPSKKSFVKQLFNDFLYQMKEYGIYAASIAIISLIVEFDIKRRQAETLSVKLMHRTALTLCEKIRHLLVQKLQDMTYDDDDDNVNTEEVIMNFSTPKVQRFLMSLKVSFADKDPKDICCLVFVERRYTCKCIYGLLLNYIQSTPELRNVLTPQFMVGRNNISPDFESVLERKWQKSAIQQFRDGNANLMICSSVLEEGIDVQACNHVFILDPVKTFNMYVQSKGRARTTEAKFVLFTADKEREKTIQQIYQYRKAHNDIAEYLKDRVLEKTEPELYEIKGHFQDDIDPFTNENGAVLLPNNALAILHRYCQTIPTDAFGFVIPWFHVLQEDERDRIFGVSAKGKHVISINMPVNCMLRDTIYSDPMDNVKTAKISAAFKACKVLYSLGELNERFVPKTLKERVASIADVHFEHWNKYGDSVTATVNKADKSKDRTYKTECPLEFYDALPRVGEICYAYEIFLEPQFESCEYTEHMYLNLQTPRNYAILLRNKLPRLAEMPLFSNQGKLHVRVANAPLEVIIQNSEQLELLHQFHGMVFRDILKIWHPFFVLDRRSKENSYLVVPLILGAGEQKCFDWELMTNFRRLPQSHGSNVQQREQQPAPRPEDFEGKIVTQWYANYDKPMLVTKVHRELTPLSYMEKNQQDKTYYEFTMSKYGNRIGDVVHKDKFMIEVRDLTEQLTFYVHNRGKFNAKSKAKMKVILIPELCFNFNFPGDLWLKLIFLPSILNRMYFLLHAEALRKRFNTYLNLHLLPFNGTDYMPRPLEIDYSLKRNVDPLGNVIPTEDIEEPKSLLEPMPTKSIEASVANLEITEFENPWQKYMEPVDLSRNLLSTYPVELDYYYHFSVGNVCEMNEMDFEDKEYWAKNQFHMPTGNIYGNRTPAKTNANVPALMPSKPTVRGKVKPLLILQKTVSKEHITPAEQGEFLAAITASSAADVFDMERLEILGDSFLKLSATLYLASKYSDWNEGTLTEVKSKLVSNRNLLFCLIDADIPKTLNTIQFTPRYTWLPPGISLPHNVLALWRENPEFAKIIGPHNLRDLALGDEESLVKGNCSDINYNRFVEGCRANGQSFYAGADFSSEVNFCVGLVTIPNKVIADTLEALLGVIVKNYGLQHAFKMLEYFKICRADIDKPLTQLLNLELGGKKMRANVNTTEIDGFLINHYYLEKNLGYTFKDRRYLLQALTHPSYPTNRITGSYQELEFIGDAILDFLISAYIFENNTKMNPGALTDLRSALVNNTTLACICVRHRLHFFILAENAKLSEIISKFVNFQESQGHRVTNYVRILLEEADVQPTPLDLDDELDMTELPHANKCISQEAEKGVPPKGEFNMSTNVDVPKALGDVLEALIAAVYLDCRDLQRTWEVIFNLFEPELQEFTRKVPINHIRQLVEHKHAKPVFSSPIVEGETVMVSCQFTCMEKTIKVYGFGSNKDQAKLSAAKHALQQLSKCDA

stoichiometry N: 1
B1: Loquacious-PD (Loqs-PD), OSF tag removed (natural protein, Drosophila melanogaster, UniProt Q9VJY9-4 1-359, looked up)
chain: MDQENFHGSSLPQQLQNLHIQPQQASPNPVQTGFAPRRHYNNLVGLGNGNAVSGSPVKGAPLGQRHVKLKKEKISAQVAQLSQPGQLQLSDVGDPALAGGSGLQGGVGLMGVILPSDEALKFVSETDANGLAMKTPVSILQELLSRRGITPGYELVQIEGAIHEPTFRFRVSFKDKDTPFTAMGAGRSKKEAKHAAARALIDKLIGAQLPESPSSSAGPSVTGLTVAGSGGDGNANATGGGDASDKTVGNPIGWLQEMCMQRRWPPPSYETETEVGLPHERLFTIACSILNYREMGKGKSKKIAKRLAAHRMWMRLQETPIDSGKISDSICGELEGEVSIIQDIDRYEQVSKDFEFIKI
modifications: mono-phosphorylated (intact-mass ESI/MS shows a phospho and a dephosphorylated species); putative site assigned to the motif 213-SPSSS-217
